Reference: patent publication US20250189544A1 (CASI PHARMACEUTICALS, published 2025)

What was measured:
Human CD38 [1] = molecular target: T1, Human CD38 (human, UniProt P28907 1-300); assay: flow cytometry on red blood cells of Donor 1; negative control
T1 sequence: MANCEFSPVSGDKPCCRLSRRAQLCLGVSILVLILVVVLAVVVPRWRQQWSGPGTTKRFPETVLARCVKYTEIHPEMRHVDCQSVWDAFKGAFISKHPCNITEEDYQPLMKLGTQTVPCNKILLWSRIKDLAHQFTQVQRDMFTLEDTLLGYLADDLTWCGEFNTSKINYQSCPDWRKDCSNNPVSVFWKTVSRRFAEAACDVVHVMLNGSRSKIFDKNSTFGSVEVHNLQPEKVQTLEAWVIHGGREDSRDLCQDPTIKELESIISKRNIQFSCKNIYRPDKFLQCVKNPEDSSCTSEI

Human CD38 [2] = molecular target: T1, Human CD38; assay: flow cytometry on red blood cells of Donor 3; negative control
Human CD38 [3] = molecular target: T1, Human CD38; assay: flow cytometry on red blood cells of Donor 2; negative control
Human CD38 [4] = molecular target: T1, Human CD38; assay: flow cytometry on Ramos cells expressing CD38; negative control, ambiguous regression curve
Human CD38 [5] = molecular target: T1, Human CD38; assay: flow cytometry on Raji cells expressing CD38; text value differs from Table 1 (273)
Method: (§1) Cell lines/primary cell type used. […] Daudi, Raji, Ramos and cells were cultured in log-phase in RPMI-1640 Medium (ATCC 30-2001) supplemented with 10% FCS, 2 mM L-glutamine, 100 IU/ml penicillin, 100 μg/ml streptomycin and 1 mM sodium pyruvate (all from ThermoFisher) with viability of >85% as determined by automated cell counter (Countess II FL Automated Cell Counter; ThermoFisher; catalog #AMQAF1000) prior to experiments.
(§2) Cell staining and flow cytometry. All experiments were done in triplicates using a 96-well plate format. 50,000 cells were plated in each well of a 96-well round bottom tissue culture treated plate. […] Following a wash step with FACS cell staining buffer, cells were incubated with secondary antibody (rabbit anti-human Fcγ F(ab′)2 labeled with Alexa Fluor647; Jackson ImmunoResearch Catalog #309-606-008) at 5 μg/ml for 30 minutes on ice in the dark. Cells were washed once more with FACS cell staining buffer and analyzed by flow cytometry using a BD Biosciences FACSCalibur flow cytometer (San Jose, CA). FSC vs SSC gating was used to identify cells of interest. A total of 3,000 live single cells were recorded for each sample and corresponding fluorescent signal intensity histograms were analyzed. The mean fluorescence intensity (MFI) was calculated using FlowJo analysis software (Ashland, Oregon) for each antibody concentration.

Human CD38 [6] = molecular target: T1, Human CD38; assay: flow cytometry on Ramos cells expressing CD38
Method: as §1, §2

Human CD38 [7] = molecular target: T1, Human CD38; assay: flow cytometry on Daudi cells expressing CD38
Method: as §1, §2

Human CD38 [8] = molecular target: T1, Human CD38; assay: flow cytometry on Raji cells expressing CD38
Method: as §1, §2

Human IgG1 isotype control antibody
Max MFI (Human CD38 [1]): 2560 MFI
Max MFI (Human CD38 [2]): 1960 MFI
Max MFI (Human CD38 [3]): 2110 MFI
EC50 (Human CD38 [4]): 0.001 µg/mL

B1: CID103 (aCD38-b-348) (antibody, V domains shown)
VH: QLQLQESGPGLVKPSETLSLTCTVSGGSISSSDYYWGWIRQPPGKGLEWIGSIYYSGSTYYNPSLKSRVTISVDTSKNQFSLKLSSVTAADTAVYYCARGQYSSGWYAYPFDMWGQGTMVTVSS
VL: EIVLTQSPGTLSLSPGERATLSCRASQSVRSSYLAWYQQKPGQAPRLLIYGASSRATGIPDRFSGSGSGTDFTLTISRLEPEDFAVYYCQQDGNVYTFGGGTKVEIK
EC50 (Human CD38 [5]): 0.373 µg/mL
EC50 (Human CD38 [6]): 0.412 µg/mL
EC50 (Human CD38 [7]): 0.382 µg/mL
EC50 (Human CD38 [8]): 0.273 µg/mL
